According to the nanobody polyreactivity screen of Harvey et al. (2022):

Experiment: yeast display, Sf9 membrane polyspecificity reagent, FACS + sequencing; frameworks hold sequencing errors
Outline: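 Using colony PCR, genes from sorted yeast display clones were amplified, then sequenced on MiSeq at 2 × 250 and filtered by CDR length. The clones had been stained with 10% biotinylated, detergent-solubilized Sf9 membrane reagent for 1 hour at 4 °C and sorted by FACS into low and high (top ~1%) gates on anti-HA and streptavidin fluorescence. Polyreactivity labels come from the gate of origin.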

Sequence: QVQLVESGGGLVQAGGSLRLSCAASGLTYNRYTMGWYRQAPGKERELVAAITSSGSTYYADSVKGRFTISRDNAKYTVYLQMNSLKPEDTAVYYCNTVYYDWFHYDYWGQGTQVTVSS
- polyreactivity (PSR sort gate): high polyreactivity

Sequence: QVQLVESGGGLVQAGGSLRLSCAASGLTYSNAMGCYRQAPGKERELVAAISWRGGRTYYADSVKGRFTISRDNAKNTVYLQMNSLKPEDTAVYYCAKYAHGHKWYGYWGQGNQVTVSS
- polyreactivity (PSR sort gate): low polyreactivity

Sequence: QVQLVESGGGLVQAGGSLRLSCAASGLYAMGWYRQAPGKERELVADINSSGGSITNYADSVKGRFTISRDNAKNTVYLQMNSLKPEDTAVYYCAAPALGNYFYGYDYWGQGTQVTVSS
- polyreactivity (PSR sort gate): low polyreactivity

Sequence: QVQLVESGGGLVQAGGSLRLSCAASGMIFYTYVMGWYRQAPGKEREFVAGISTSGGRTDYADSVKGRFTISRDNAKNTVYLQMNSLKPEDTAVYYCNADYWQWYSYWYDYWGQGTQVTVSS
- polyreactivity (PSR sort gate): high polyreactivity

Sequence: QVQLVESGGGLVQAGGSLRLSCAASGMTFGLYAMGWYRQAPGKERELVAAISKRGGSTNYADSVKGRFTISRDNAKNTVYLQMNSLKPEDTAGYYCAARYPQRGTGKATYVRSRSGYWGLGTQVTVSS
- polyreactivity (PSR sort gate): high polyreactivity

Sequence: QVQLVESGGGLVQAGGSLRLSCAASGNAMGWYRQAPGKERELVAAITYGGTTTYYADTVKGRFTISRDNAKNTVYLQMTSQKPEDTAVYYCAADNVSVATPLRYDYWGQGTQVTVSS
- polyreactivity (PSR sort gate): low polyreactivity

Sequence: QVQLVESGGGLVQAGGSLRLSCAASGNAMGWYRQAPGKERELVASINRSGGRTYYADSVKGRFTISRDNAKNTVYLQMISLKPEDTAVYYCGARPHYDSDYWGQGTQVTVSS
- polyreactivity (PSR sort gate): low polyreactivity

Sequence: QVQLVESGGGLVQAGGSLRLSCAASGNIFADYVMGWYRQAPGKERELVAAIDKSGGRTYYADSVKGRFTISRDNAKNTVYLQMNSLKPEDTAVYYCSAYDRYRRMDYWGQGTQVTVSS
- polyreactivity (PSR sort gate): high polyreactivity

Sequence: QVQLVESGGGLVQAGGSLRLSCAASGNIFAIYAMGWYRPAPGKEREFVAAIDWSVASTYYADSVKGRFTISRDNAKNTVYLKMNSLKPEDTAVYYCAAELYCLKYGYYLSYDYWGQGTQVTVSS
- polyreactivity (PSR sort gate): high polyreactivity

Sequence: QVQLVESGGGLVQAGGSLRLSCAASGNIFAIYARGWYRQAPGKEREFVAAIDWSVASTYYADSVKGRFTISRDNEKNTVYLQMNSLTPEDTAVYSSAAELYGLKYGYYLSYDYWGQGTQVTVSS
- polyreactivity (PSR sort gate): high polyreactivity

Sequence: QVQLVESGGGLVQAGGSLRLSCAASGNIFAYNAMGWYRQAPGKERELVASIRYSGGSTYYADSVKGRFTISRDNAKNTVYLQMNSLKPEDTAVYYCAKRGYSSYRTYNYWGQGTQVTVSS
- polyreactivity (PSR sort gate): high polyreactivity

Sequence: QVQLVESGGGLVQAGGSLRLSCAASGNIFDLYAMGWYRQAPGKERELVAAITRSSSRTYYADSVKGRFTISRDNAKNTVYLQMNSLKPEDTAVYYCAAKYSNGSGFDYWGQGTQVTVSS
- polyreactivity (PSR sort gate): high polyreactivity

Sequence: QVQLVESGGGLVQAGGSLRLSCAASGNIFDRYAMGWYRQAPGKERELVAGITWSGGSTYYADSVKGRFTISRDNAKNTVYLQMNSLKPEDTAVYYCGEANYYWGHGTQVTVSS
- polyreactivity (PSR sort gate): low polyreactivity

Sequence: QVQLVESGGGLVQAGGSLRLSCAASGNIFDSNAMGWYRQAPGKERELVAAITWSGGSTYYADSVKGRFTISRDNAKNTVYLQMNSLKPEDTAVYYCNRYIRYYAWFGYWGQGTQVTVSS
- polyreactivity (PSR sort gate): high polyreactivity

Sequence: QVQLVESGGGLVQAGGSLRLSCAASGNIFDTYVMGWYRPAPGTERELVAAISSAGSTNYADSVKGRFTISRDNAKNTVYLQMNSLKPEDTAVYYCNADYWYYGYDYWGQGTQVTVSS
- polyreactivity (PSR sort gate): low polyreactivity

Sequence: QVQLVESGGGLVQAGGSLRLSCAASGNIFESYGMGWYRHAPGKERELVATINTSSGSTYDADSVKGRFTISRDNAKNTVYLQMNSLKPEDTAVYYCAAEWYPYPWGYGYWGQGTQVTVSS
- polyreactivity (PSR sort gate): low polyreactivity

Sequence: QVQLVESGGGLVQAGGSLRLSCAASGNIFETYAMGWYRQAPGKERELVAVITRGGSTYYADSVKGRFTISRDNAKNTVYLQMNSLKPEDTAVYYCARDAFDDWYGLTDDKSDYWGQGTQVTVSS
- polyreactivity (PSR sort gate): low polyreactivity

Sequence: QVQLVESGGGLVQAGGSLRLSCAASGNIFFGNAMGWYRQAPGKERELVAVISKRGGSTYYADSVKGRFTISRDNAKNTVYLQMNSLKPEDTAVYYCAKVPTSRGNQLQQDGTKYDYWGQGTQVTVSS
- polyreactivity (PSR sort gate): high polyreactivity

Sequence: QVQLVESGGGLVQAGGSLRLSCAASGNIFFTNAMGWYRQAPGKDRELVATISFRGTSTYYADSVKGRFTISRDNAKNTVYLQMNSLKPEDTAVYYCTARYSVFHRARVNLLGWGLYYWGQGTQVTVSS
- polyreactivity (PSR sort gate): low polyreactivity

Sequence: QVQLVESGGGLVQAGGSLRLSCAASGNIFGAYAMGWYRQAPGKERELVARINSGAITNYADSVKGRFTISRDNAKNTVYLQMNSLKPEDTAVYYCNKDTYYAGSYLDYDYWGQGTQVTVSS
- polyreactivity (PSR sort gate): low polyreactivity

Sequence: QVQLVESGGGLVQAGGSLRLSCAASGNIFGHYTRGWYRQAPAKERELVAAISRTGGRTYYADSVKGRFTISRDNAKNTVYLQMNSLKPEDTAVYDCDADKGGTYFNGDSWGQGTQVTVSS
- polyreactivity (PSR sort gate): high polyreactivity

Sequence: QVQLVESGGGLVQAGGSLRLSCAASGNIFGLNSMGWYRQAPGIDRELVSAISKSGGSTFYADSVKGRFKISRDNAKNTVYLQMNSLKPEDTAVYYCAARWNGARPNHTYGYWGQGTQVTVSS
- polyreactivity (PSR sort gate): high polyreactivity

Sequence: QVQLVESGGGLVQAGGSLRLSCAASGNIFGSYAMGWYRQAPGKERELVAAIRTSGGSTYYADSVKGRFTISRDNAKNTVYLQMNSLKPEDTAVYYCATRSRTTKIVRWPGMYYWGQGTQVTVSS
- polyreactivity (PSR sort gate): high polyreactivity

Sequence: QVQLVESGGGLVQAGGSLRLSCAASGNIFGVDAMGWYRQAPGKERELVATITTGGSTYYADSVKGRFTISRDNAKNTVYLQMNSLKPADTAVYYCAADVGGGNYVYYGNDYDDGYWGQGTQVTVSS
- polyreactivity (PSR sort gate): low polyreactivity

Sequence: QVQLVESGGGLVQAGGSLRLSCAASGNIFHDNAMGWYREAPGKERELVAAISDSGGSTYYADSVKGRFTISRDNAKNTVYFQMNSLQPEDTAVYYCDSGRTYYAPYQWWYDYWGQGTQVTVSS
- polyreactivity (PSR sort gate): high polyreactivity

Sequence: QVQLVESGGGLVQAGGSLRLSCAASGNIFHKNAMGWYSQAPGKERELVASISWSGGSTYYADSVKGRFTISRDNAKNTVYLQMKSLKPEDTAVYYCATDAFGYPGNRYALNDYWGQGTQVTVSS
- polyreactivity (PSR sort gate): low polyreactivity

Sequence: QVQLVESGGGLVQAGGSLRLSCAASGNIFIKNAMGWYRQAPGKERELVAAISFSGGSTYYADSVKGRFTISRDNAKNTVYLQMNSLKPEDTAVYYCNAVRRQARQYDYWGQGTQVTVSS
- polyreactivity (PSR sort gate): high polyreactivity

Sequence: QVQLVESGGGLVQAGGSLRLSCAASGNIFIYNAMGWNRQAPGKERELVAAISVSGGDTYYADSVKGRFTISRDNAKYTVYLQLNSLKPEDTAVYYCAAEAEYIELDYWGQGTQVTVSS
- polyreactivity (PSR sort gate): low polyreactivity

Sequence: QVQLVESGGGLVQAGGSLRLSCAASGNIFPAYAMGWYRQAPGKERELVAAISKSGGRTYYAESVKGRFTISRDNAKNTVYLQMNSLKQEDTAVYYALLTVRRAVPYSVRYDYWGQGTQVTVSS
- polyreactivity (PSR sort gate): high polyreactivity

Sequence: QVQLVESGGGLVQAGGSLRLSCAASGNIFPIYPMGWYRQAPGKERELVASIYRGGTTYYADSVKGRFTISRDNAKNTVYLQMNSLKPEETAVYYCAVYSPRLRRVHTRGYWGQGTQVTVSS
- polyreactivity (PSR sort gate): high polyreactivity

Sequence: QVQLVESGGGLVQAGGSLRLSCAASGNIFPPNTMGWYRQAPGKERELVAVITWSDGGTYADSVKGRFTISRDNAKNTVYLQMNSLKPEDSAVYYCNADYYFAAPKGEYTAWYDYWGQGTQVTVSS
- polyreactivity (PSR sort gate): low polyreactivity

Sequence: QVQLVESGGGLVQAGGSLRLSCAASGNIFPPYAMGWYRQAPGKERELVAAITRSGASTYYADSVKGRFTISRDNAKNTVYLQMNSLKPEDTAVYYCAVGVPGGYWKYYYWGQGTQVTVSS
- polyreactivity (PSR sort gate): high polyreactivity

Sequence: QVQLVESGGGLVQAGGSLRLSCAASGNIFPWYAMGWYRQAPGKERELVASITVSGGRTYYADSVKGRFTISRDNAKNTVYLQMNSLKPEDTAVYYCNKYLVWYVPGAYNSWGQGTQVTVSS
- polyreactivity (PSR sort gate): high polyreactivity

Sequence: QVQLVESGGGLVQAGGSLRLSCAASGNIFPYYPMGWYRQAPGKERELVASISRSGGSTYYADSVKGRFTISRDNAKNTVYLQMNSLKPEDTAVYYCAKRTPYYGFGFFHPARGYGYWGQGTQVTVSS
- polyreactivity (PSR sort gate): low polyreactivity

Sequence: QVQLVESGGGLVQAGGSLRLSCAASGNIFRGYTMGWSRQAPGKERELVAAISYSGGSTYADSVKGRFTISRDNAKNTVYLQMNSLKPEDTAVYYCNTDTSVDVRFDYWGQGTQVTVSS
- polyreactivity (PSR sort gate): low polyreactivity

Sequence: QVQLVESGGGLVQAGGSLRLSCAASGNIFRPYTMGWYRQAPGKERELVARISSGGSTNYADSVKGRFTISRDNAKNTVYLQMNSLKPEDTAVYYCNTVFRGSSTRGYDYWGQGTQVTVSS
- polyreactivity (PSR sort gate): high polyreactivity

Sequence: QVQLVESGGGLVQAGGSLRLSCAASGNIFRRYAMGWYRQAPGKERELVAAISISGGNTYYADSVKGRFTISRDNAKNTVYLQMNSLKPEDTAVYYCNAVGRYSEYGYWGQGTQVTVSS
- polyreactivity (PSR sort gate): high polyreactivity

Sequence: QVQLVESGGGLVQAGGSLRLSCAASGNIFRYYTMGWYRQAPGKERELVATISYADSVKGRFTISRDNAKNTVYLQMNSLKPEDTAVYYCKADFAPWDKQDYPYDYDYWGQGTQVTVSS
- polyreactivity (PSR sort gate): low polyreactivity

Sequence: QVQLVESGGGLVQAGGSLRLSCAASGNIFSDNAMGWYRQAPGKERELVAAITSGGSTIYADSVKGRFTISRDNAKNTVYLQMNSLKPEDTAVYYCAADISYRHFLFDFWGQGTQVTVSS
- polyreactivity (PSR sort gate): low polyreactivity

Sequence: QVQLVESGGGLVQAGGSLRLSCAASGNIFSDYAMGWYRQAPGKERELVAAISSGGNTNYADSVKRRFSISRDNAKNTVYLEMNSLKPEDTAVYYCAAVYNTTYTLLPEYSDVKYYYWGQGTQVTVSS
- polyreactivity (PSR sort gate): low polyreactivity

Sequence: QVQLVESGGGLVQAGGSLRLSCAASGNIFSFNDMGWYRQAPGKERELVAAITSSDSTNYADSVKGRFTISRDNAKNTVYLQMNSLKPEDTAVFYCATEILTAARDTVVYQFYLGYYYWGQGTQVTVSS
- polyreactivity (PSR sort gate): low polyreactivity

Sequence: QVQLVESGGGLVQAGGSLRLSCAASGNIFSFNDMGWYRQAPGKERELVAGITTSESTNYADSVKGRFTISRDNAKNTVYLQMNSLKPEDTAVYYCATEILTAARDTVVYQFYLGYYYWGQGTQVTVSS
- polyreactivity (PSR sort gate): low polyreactivity

Sequence: QVQLVESGGGLVQAGGSLRLSCAASGNIFSRNAMGWYRQAPGKERELVASIDNSTSGTYYADSVKGRFTISRDNAKNTVYLQMKSLKPEDTAVYYCAATPLVDGSSIPREGDYWGQGTQVSVSS
- polyreactivity (PSR sort gate): low polyreactivity
